The test has as its target T1, Sea4-TAP (S. cerevisiae (endogenous in yeast …, UniProt P38164 1-1038)).
T1 construct: Sea4, S. cerevisiae, endogenous subunit of the SEAC (SEACAT, core), TAP-tagged; Captured by the TAP tag on IgG beads; the complex was released with TEV protease before SDS-PAGE and cryo-EM; Written 'Sea4-TAP'; Four copies in the SEAC; source: endogenous, yeast cells expressing Sea4-TAP; in lysate, purified on IgG-coupled Dynabeads and eluted with TEV protease
T1 sequence (looked up): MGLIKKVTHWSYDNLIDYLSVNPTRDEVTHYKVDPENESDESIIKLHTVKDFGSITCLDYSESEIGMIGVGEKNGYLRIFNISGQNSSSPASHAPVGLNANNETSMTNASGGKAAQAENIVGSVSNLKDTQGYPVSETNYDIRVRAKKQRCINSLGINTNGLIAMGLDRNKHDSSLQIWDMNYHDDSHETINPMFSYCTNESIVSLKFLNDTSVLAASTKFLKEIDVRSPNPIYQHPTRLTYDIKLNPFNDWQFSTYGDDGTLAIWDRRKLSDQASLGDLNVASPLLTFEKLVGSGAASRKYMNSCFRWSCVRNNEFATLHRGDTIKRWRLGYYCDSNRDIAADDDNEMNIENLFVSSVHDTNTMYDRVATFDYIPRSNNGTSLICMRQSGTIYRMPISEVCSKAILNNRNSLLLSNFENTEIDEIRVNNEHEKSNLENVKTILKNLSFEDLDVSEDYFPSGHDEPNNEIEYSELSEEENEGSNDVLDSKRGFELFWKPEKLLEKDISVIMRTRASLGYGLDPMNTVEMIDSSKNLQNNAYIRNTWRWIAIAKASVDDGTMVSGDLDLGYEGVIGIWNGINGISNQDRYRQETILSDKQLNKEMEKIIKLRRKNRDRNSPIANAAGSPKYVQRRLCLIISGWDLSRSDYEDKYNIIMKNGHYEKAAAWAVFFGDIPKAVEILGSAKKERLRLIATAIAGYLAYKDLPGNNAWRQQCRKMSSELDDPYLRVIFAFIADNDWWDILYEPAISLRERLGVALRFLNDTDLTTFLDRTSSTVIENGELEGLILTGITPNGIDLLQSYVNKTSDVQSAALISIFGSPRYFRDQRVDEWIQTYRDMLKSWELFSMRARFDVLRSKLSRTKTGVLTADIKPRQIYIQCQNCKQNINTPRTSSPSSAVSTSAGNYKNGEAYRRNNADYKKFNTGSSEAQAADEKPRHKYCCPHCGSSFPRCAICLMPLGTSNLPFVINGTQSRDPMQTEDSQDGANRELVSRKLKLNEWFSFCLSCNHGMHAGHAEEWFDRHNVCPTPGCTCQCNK
Nature of the test: cryo-EM structure; endogenous SEAC purified from yeast via Sea4-TAP (IgG Dynabeads, TEV elution in 20 mM HEPES-NaOH pH 7.4, 300 mM NaCl, 2 mM DTT), on graphene-oxide-coated grids. The conditions noted are these: both partners purified.

B1: Seh1 (natural protein, UniProt P53011 1-349, looked up)
chain: MQPFDSGHDDLVHDVVYDFYGRHVATCSSDQHIKVFKLDKDTSNWELSDSWRAHDSSIVAIDWASPEYGRIIASASYDKTVKLWEEDPDQEECSGRRWNKLCTLNDSKGSLYSVKFAPAHLGLKLACLGNDGILRLYDALEPSDLRSWTLTSEMKVLSIPPANHLQSDFCLSWCPSRFSPEKLAVSALEQAIIYQRGKDGKLHVAAKLPGHKSLIRSISWAPSIGRWYQLIATGCKDGRIRIFKITEKLSPLASEESLTNSNMFDNSADVDMDAQGRSDSNTEEKAELQSNLQVELLSEHDDHNGEVWSVSWNLTGTILSSAGDDGKVRLWKATYSNEFKCMSVITAQQ
notes: Seh1, S. cerevisiae, endogenous subunit of the SEAC (SEACAT, core); Native protein of the purified complex; six copies in the SEAC; source: endogenous, yeast cells expressing Sea4-TAP; in lysate and co-purified with Sea4-TAP (IgG Dynabeads, TEV elution)
For B1, the binding result is listed as “binds”.

The values above are taken from article PMC9646525, “Cryo-EM structure of the SEA complex” (Nature, 2022).
